Data on three molecules can be found in PMC5306355, “Clustered Genes Encoding 2-Keto-L-Gulonate Reductase and L-Idonate 5-Dehydrogenase in the Novel Fungal D-Glucuronic Acid Pathway” (Frontiers in Microbiology, 2017).

Holding throughout (type): biochemical, Aspergillus niger
In series [1] the test system is GluE. The experiment in a line: NADH oxidation followed at […] nm. As to conditions: 400 μM NADH; 50 mM Tris pH 7.
The subject of series [2] is GluE. The experiment in a line: NADH formation followed at […] nm. As to conditions: 400 μM NAD+; 50 mM Tris pH 8.
Substrate in series [3]: O=C(O)C(=O)[C@@H](O)[C@H](O)[C@@H](O)CO
The experiment in a line: purified protein. The note with it: NADPH as co-substrate (Methods print 400 μM NADH), 50 mM Tris pH 7.

Substrate in series [4]: O=C(O)[C@H](O)[C@@H](O)[C@H](O)[C@@H](O)CO
The experiment in a line: purified protein. As to conditions: NADP+ as co-substrate (Methods print 400 μM NAD+), 50 mM Tris pH 8.

For the molecule `O=C(CO)[C@@H](O)[C@H](O)[C@@H](O)C(=O)O` [5-keto-D-gluconate], the Michaelis constant (Km) in the series with GluE [1] came out at 8.4 ± 0.1 mM.

As to `O=C(O)[C@H](O)[C@@H](O)[C@H](O)[C@@H](O)CO` [L-idonate], the Michaelis-Menten constant (Km) in the series with GluE [2] stood at 30.9 ± 1.5 mM.

B1: GluD (Aspergillus niger) (protein)
chain: MPAALLIGAITHSMPEWNDLSSILTLKEFPSGTREDFIRNCRDGQYDDVVAIYRSNTSTKFTGPFDAELLSFLPSSLKYIAHNGAGYDNIDVAACTKKGIAVSSTPVAVNNATADVAIFLMIGALRQAYIPVTSLREGKFLGQTGLGHDPQNKVLGILGMGGIGREVARRARAFGMTIQYHNRSRLSPELEDGATYVSFDELLANSDVLSLNLALNASTRHIIGKTEFQKMKDGVIIVNTARGALIDEKALVEALESGKVWSAGLDVYENEPAIEPGLVNNPRVMLLPHIGTMTYETQREMELLVLNNLRSGVETGKMITLVPEQKDVFGK
Take B1: in the series “purified protein [3]”, the Michaelis-Menten constant (Km) was 25.3 ± 1.2 mM, the maximum rate (Vmax) was 34.9 µmol/min/mg and the turnover number (kcat) was 21.4 ± 0.3 s⁻¹. In the series “purified protein [4]”, the Km is 12.6 ± 0.8 mM, the Vmax amounted to 1.7 µmol/min/mg and the kcat turned out to be 1.1 s⁻¹.
